# In publication PMC3100782 (Biochemistry, 2011):
# Non-standard residues stand in square brackets, D forms with d. pS = N[C@@H](COP(=O)(O)O)C(=O)O
# Tests used:
# [1] = biological target: fluorescent BACH1-derived peptide (Fluorescein-GGSRSTpSPTFNK-NH2); assay: fluorescence polarisation
# [2] = biological target: wild-type BRCA1 BRCT domain (human, UniProt P38398); assay: fluorescence polarisation
molecule,measurement,setting,value
BRCA1 BRCT domain R1699W variant (from UniProt P38398) (domain or fragment),Kd,[1],> 200000 nM
Fluorescein-GGSRST[pS]PTFNK-NH2 [fluorescent BACH1-derived peptide (Fluorescein-GGSRSTpSPTFNK-NH2)],Kd,[2],1200 ± 100 nM
